The values below come from publication doi:10.1101/2023.08.15.553295 (bioRxiv, 2023).

Ends that are not written are not given here. Some results are limits rather than exact numbers.

The target of assay [1] is T1, DCAF12 (Δ1-78) (human, UniProt Q5T6F0 79-453). Kind of assay: fluorescence polarisation. Background: In fluorescence polarisation assays a small probe gives low polarisation when free and higher when bound to something large.
For assay [2], the target named is T1, DCAF12 (Δ1-78). Kind of assay: fluorescence polarisation. This is another data set of the same source.
Assay [3] addresses biotinylated DCAF12 (Δ1-78) (human, UniProt Q5T6F0 79-453, biotin). Kind of assay: SPR. (In general: In SPR one partner is held on a chip, and binding of the other changes the refractive index at the surface.)
The target in the next assay is HaloTag-DCAF12 wild type (human, UniProt Q5T6F0 1-453). Kind of assay: FRET or BRET. (Bioluminescence resonance energy transfer reports proximity on the nanometre scale.)
Chain of HaloTag-DCAF12 wild type (Q5T6F0 whole entry): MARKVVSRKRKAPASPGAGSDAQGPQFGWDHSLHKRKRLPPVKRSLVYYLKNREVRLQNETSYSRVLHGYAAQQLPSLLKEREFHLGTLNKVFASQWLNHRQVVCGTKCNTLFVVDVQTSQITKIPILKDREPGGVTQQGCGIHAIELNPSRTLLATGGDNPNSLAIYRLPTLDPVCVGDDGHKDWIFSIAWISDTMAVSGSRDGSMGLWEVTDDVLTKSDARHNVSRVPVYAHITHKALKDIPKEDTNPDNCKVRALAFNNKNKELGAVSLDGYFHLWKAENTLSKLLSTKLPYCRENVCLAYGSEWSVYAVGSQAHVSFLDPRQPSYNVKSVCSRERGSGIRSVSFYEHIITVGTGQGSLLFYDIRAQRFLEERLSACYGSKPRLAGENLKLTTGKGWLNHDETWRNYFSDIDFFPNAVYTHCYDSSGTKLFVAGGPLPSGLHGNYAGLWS

T1 sequence (Q5T6F0 79-453, stated change not applied): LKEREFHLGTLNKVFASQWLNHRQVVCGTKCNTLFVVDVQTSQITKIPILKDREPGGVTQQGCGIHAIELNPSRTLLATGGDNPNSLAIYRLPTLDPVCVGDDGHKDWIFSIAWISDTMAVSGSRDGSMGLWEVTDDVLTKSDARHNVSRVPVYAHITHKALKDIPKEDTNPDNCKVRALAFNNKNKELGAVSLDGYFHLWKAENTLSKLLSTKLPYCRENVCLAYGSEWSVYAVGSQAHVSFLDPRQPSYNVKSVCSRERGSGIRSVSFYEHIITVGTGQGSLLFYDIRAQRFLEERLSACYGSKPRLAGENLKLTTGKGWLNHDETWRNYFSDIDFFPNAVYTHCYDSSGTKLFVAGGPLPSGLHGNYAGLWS
Chain of biotinylated DCAF12 (Δ1-78) (Q5T6F0 79-453, stated change not applied): as above

For the molecule LHEWVLREGEE (also: FITC label, position not given here) [FITC-labeled MAGEA3 C-terminal degron peptide], in the assay with DCAF12 (Δ1-78) [1], the Kd (in general, a measure of binding affinity in units of concentration) is less than 0.37 µM.
Regarding LHEWVLREGEE [unlabeled MAGEA3 C-terminal degron peptide], the binding result (in the assay with DCAF12 (Δ1-78) [2]; in assay [3]) was “binds” throughout.

B1: NanoLuc-MAGEA3 full length (natural protein)
chain: MPLEQRSQHCKPEEGLEARGEALGLVGAQAPATEEQEAASSSSTLVEVTLGEVPAAESPDPPQSPQGASSLPTTMNYPLWSQSYEDSSNQEEEGPSTFPDLESEFQAALSRKVAELVHFLLLKYRAREPVTKAEMLGSVVGNWQYFFPVIFSKASSSLQLVFGIELMEVDPIGHLYIFATCLGLSYDGLLGDNQIMPKAGLLIIVLAIIAREGDCAPEEKIWEELSVLEVFEGREDSILGDPKKLLTQHFVQENYLEYRQVPGSDPACYEFLWGPRALVETSYVKVLHHMVKISGGPHISYPPLHEWVLREGEE
Turning to B1, the “BRET signal, fold over the negative control” value with HaloTag-DCAF12 wild type was 22 fold.
As for IRKPGESEE [unlabeled CCT5 C-terminal degron peptide], the binding result (with DCAF12 (Δ1-78) [2]; in assay [3]) was “binds” throughout.
In the assay with DCAF12 (Δ1-78) [1], IRKPGESEE (also: FITC label, position not given here) [FITC-labeled CCT5 C-terminal degron peptide] came in with a dissociation constant (Kd) of less than 0.37 µM.
